Laboratory results from paper PMC6802964 (2019).
Where a chain is given by its changes, count along the chain named. Blank lines part the entries; values can stand above or below the binder they belong to.

Assays:
Myo1 IQ12 = target: T1, Myo1 IQ12 (Schizosaccharomyces pombe, UniProt Q9Y7Z8); experiment: FRET
T1 chain: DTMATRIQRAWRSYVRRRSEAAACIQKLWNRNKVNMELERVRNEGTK

[1] = target: T2, CyPet–Myo1^IQ12S742D–YPet FRET reporter protein (S742D phosphomimetic) (S. pombe); experiment: FRET
T2 chain: T1 chain with S19D

[2] = target: T3, CyPet–Myo1^IQ12–YPet FRET reporter protein (S. pombe); experiment: FRET; first site (Kd1)
T3 chain: T1 chain

[3] = target: T4, CyPet–Myo1^IQ1–YPet FRET reporter protein (S. pombe); experiment: FRET
T4 chain: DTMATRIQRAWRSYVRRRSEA

[4] = target: T2, CyPet–Myo1^IQ12S742D–YPet FRET reporter …; experiment: FRET; first site (Kd1)
[5] = target: T2, CyPet–Myo1^IQ12S742D–YPet FRET reporter …; experiment: FRET; second site (Kd2)

Kd (Myo1 IQ12): 1100 nM
B1: Cam2 (protein)
chain: MPASKEQTDEMKEAFVLYDIDKDGLIPTSHVGSVLRSLGINVTDAELAKLSNELGDAIDEKKFMSFVSNKLRETESEEEYIKAFRVFDKDNSGYIETAKFADYMKTLGEKLSDNEVQLMVQEADPTNSGSFDYYDFVQRIMAK

Kd [1]: 250 nM
Kd [2]: 20 nM
B2: Cam2 (calcium-insensitive calmodulin-like protein) (natural protein)
chain: B1 chain

Kd [3]: 60 nM
Kd [2]: 40 nM
Kd [4]: 90 nM
Kd [5]: 540 nM
B3: Cam1 (wild type, amino-terminally acetylated fission yeast calmodulin) (natural protein)
chain: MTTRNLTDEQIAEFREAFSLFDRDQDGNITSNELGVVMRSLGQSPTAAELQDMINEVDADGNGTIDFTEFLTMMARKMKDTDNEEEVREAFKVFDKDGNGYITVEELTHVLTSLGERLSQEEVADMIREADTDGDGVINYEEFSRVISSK
modifications: amino-terminally (Nt) acetylated

Kd (Myo1 IQ12): 680 nM
B4: Cam1 (protein)
chain: not shown
